# Source: the MegaScale stability set (Tsuboyama et al. 2023)
# B1: r11_951_TrROS_Hall (parent)
# chain: KKKYVIKVYFEDTGKEVEIEAESKEEALEAAKRLAEELGLKIKKVEIYP
# B2: r4_43_TrROS_Hall (parent)
# chain: DLVTIKVPLENLEEIKKAAEKAGFKIVSISYDKENKEVTIVIEKKK
# Variants of: B1
# Experiment: folding stability dG (cDNA display proteolysis); higher = more stable
# Conditions: PBS, room temperature
row,Variant,folding stability dG [kcal/mol]
1,KKKYVIKVYFEDTGKEVEIFAESKEEALEAAKRLAEELGLKIKKVEIYP [E20F],4.25
2,KKKYVIKVYFEDTGKEVEIGAESKEEALEAAKRLAEELGLKIKKVEIYP [E20G],4.27
3,KKKYVIKVYFEDTGKEVEIYAESKEEALEAAKRLAEELGLKIKKVEIYP [E20Y],4.56
4,KKKYVIKVYFEDTGKEVEIIAESKEEALEAAKRLAEELGLKIKKVEIYP [E20I],4.38
5,KKKYVIKVYFEDTGKEVEIEAESKEEALEAAKRLAEELGLKNKKVEIYP [I42N],2.55
6,KKDYVIKVYFEDTGKEVEIEAESKEEALEAAKRLAEELGLKIKKVEIYP [K3D],3.86
7,KKIYVIKVYFEDTGKEVEIEAESKEEALEAAKRLAEELGLKIKKVEIYP [K3I],4.27
8,KKKYVIKVYFEDTGKEVEIEAESKEEALEAAKRLAEELGLKIKKVWIYP [E46W],4.47
9,KKKYVIKVYFEDTGKEVEIEAESKEEALEAAKRLAEELGLKIKKVPIYP [E46P],2.41
10,KKKYVIKVYFEDTGKEVEIEAESKEEALEAAKRLAEELGLKIKKVTIYP [E46T],4.36
11,KKKYVIKVYFEDTGKEVEIEAESKEEALEAAKRLAEELLLKIKKVEIYP [G39L],4.06
12,KKKYVIKVYFEDTGKEVEIEAESKEEALEAAKRLAEELHLKIKKVEIYP [G39H],4.31
13,KKKYVIKVYFEDTGKEVEIEAESKEEALEAAKRLAEELGLKIKKQEIYP [V45Q],3.87
14,KKKYVIKVYFEDTGKEVEIEAESKEEALEAAKRLAEELGLWIKKVEIYP [K41W],4.11
15,KKKYVIKVYFEDTGKEVEIEAESKEEALEAAKRLAEELGLKIKWVEIYP [K44W],4.24
16,KKKYVIKVYFEDTGKEVEIEAESKEEALEAAKRLAEELGLKIKEVEIYP [K44E],4.25
17,KKKYVIKVYFEDTGKEVEIEAESKEEALEAAKRLAEELGLKIKHVEIYP [K44H],4.47
18,KKKYVIKVYFEDTGKEVEIEAESKEEALEAAKRLAEELGLKIWKVEIYP [K43W],4.81
19,KKKYVIKVYFEDTGKEVEIEAESKEEALEAAKRLAEELGLKIQKVEIYP [K43Q],4.26
20,KKKYVIKVYFEDTGKEVEIEAESKEEALEAAKRLAEELGLKIEKVEIYP [K43E],4.35
21,KKKYRIKVYFEDTGKEVEIEAESKEEALEAAKRLAEELGLKIKKVEIYP [V5R],4.66
22,KKKYAIKVYFEDTGKEVEIEAESKEEALEAAKRLAEELGLKIKKVEIYP [V5A],4.35
23,QKKYVIKVYFEDTGKEVEIEAESKEEALEAAKRLAEELGLKIKKVEIYP [K1Q],4.6
24,CKKYVIKVYFEDTGKEVEIEAESKEEALEAAKRLAEELGLKIKKVEIYP [K1C],4.57
25,PKKYVIKVYFEDTGKEVEIEAESKEEALEAAKRLAEELGLKIKKVEIYP [K1P],4.64
26,KKKYVIKVYFEDTGKEVEIEAESKEEALIAAKRLAEELGLKIKKVEIYP [E29I],4.48

row,Variant,folding stability dG [kcal/mol]
1,KKKYVIKVYFEDTGKEVEIEAESKEEALGAAKRLAEELGLKIKKVEIYP [E29G],4.29
2,KKKYVIKVYFEDTGKEVEIEAESKEEALEACKRLAEELGLKIKKVEIYP [A31C],4.18
3,KKKYVIKVYFEDFGKEVEIEAESKEEALEAAKRLAEELGLKIKKVEIYP [T13F],4.36
4,KKKYVIKVYFEDYGKEVEIEAESKEEALEAAKRLAEELGLKIKKVEIYP [T13Y],4.47
5,KKKYVIKIYFEDTGKEVEIEAESKEEALEAAKRLAEELGLKIKKVEIYP [V8I],4.47
6,KKKYVIKVYFEDTGKEVEIEAESKEENLEAAKRLAEELGLKIKKVEIYP [A27N],2.01
7,KKKYVIKVYFEDTGKEVEIEAESKEELLEAAKRLAEELGLKIKKVEIYP [A27L],4.34
8,KKKYVIKVYFEDTGKEVEIEAESKEEQLEAAKRLAEELGLKIKKVEIYP [A27Q],2.23
9,KKKYVIKVYFEDTGKEVEIEAESKEEDLEAAKRLAEELGLKIKKVEIYP [A27D],1.49
10,KKKYVIKVYFEDTGKEVEIEAESKEECLEAAKRLAEELGLKIKKVEIYP [A27C],4.23
11,KKKYVIKVYFEDTGKEVEIEAESKGEALEAAKRLAEELGLKIKKVEIYP [E25G],4.15
12,KKKYVIKVYFEDTGKEVEIEAESKHEALEAAKRLAEELGLKIKKVEIYP [E25H],4.39
13,KKKYVIKVYFEDTGKEVEIEAESKEEALEAAKRLAETLGLKIKKVEIYP [E37T],4.61
14,KKKYVIKVYFEDTGKEVEIEAESKEEALEAAKRLAEKLGLKIKKVEIYP [E37K],4.68
15,KKKYVIKVYFEDTGKEVEIEAESKEEALEAAKRLAELLGLKIKKVEIYP [E37L],4.55
16,KKKYVIKVYFEDTGFEVEIEAESKEEALEAAKRLAEELGLKIKKVEIYP [K15F],4.38
17,KKKYVIKVAFEDTGKEVEIEAESKEEALEAAKRLAEELGLKIKKVEIYP [Y9A],3.91
18,KKKYVIKVPFEDTGKEVEIEAESKEEALEAAKRLAEELGLKIKKVEIYP [Y9P],1.42
19,KKKYVIKVYFEDTGKEEEIEAESKEEALEAAKRLAEELGLKIKKVEIYP [V17E],4.29
20,KKKYVIKVYFEDTGKEQEIEAESKEEALEAAKRLAEELGLKIKKVEIYP [V17Q],4
21,KKKYVIKVYFEDTGKEAEIEAESKEEALEAAKRLAEELGLKIKKVEIYP [V17A],4.23
22,KKKYVIKVYFEDTGKEWEIEAESKEEALEAAKRLAEELGLKIKKVEIYP [V17W],4.53
23,KKKYVIKVYFEDTGKEDEIEAESKEEALEAAKRLAEELGLKIKKVEIYP [V17D],3.74
24,KKKYVIKVYFEDTGKEVEIEAESKEEALEAAKRLMEELGLKIKKVEIYP [A35M],3.97
25,KKKYVIKVYFEDTGKEVEIEAESKEEALEAAKRLREELGLKIKKVEIYP [A35R],3.55
26,KKKYVIKVYFEDTGKEVEIEAESKENALEAAKRLAEELGLKIKKVEIYP [E26N],4.33

row,Variant,folding stability dG [kcal/mol]
1,KKKYVIKVYFEDTGKEVEIEAESKEGALEAAKRLAEELGLKIKKVEIYP [E26G],4.58
2,KKKYVIKVYFEDTGKEVEIEAESTEEALEAAKRLAEELGLKIKKVEIYP [K24T],4.57
3,KKKYVIKVYFEDTGKEVEIEAEVKEEALEAAKRLAEELGLKIKKVEIYP [S23V],3.91
4,KKKYVIKVYFEDTGKEVEIEAESKEEALEAAKRGAEELGLKIKKVEIYP [L34G],3.15
5,KKKYVIKVYFEDTGKEVEIEAESKEEALEAAKRMAEELGLKIKKVEIYP [L34M],4.55
6,KKKYVIKVYFEDTGKEVEIEAESKEEALEAAKRLAEELGKKIKKVEIYP [L40K],3.93
7,KKKYVQKVYFEDTGKEVEIEAESKEEALEAAKRLAEELGLKIKKVEIYP [I6Q],1.59
8,KKKYVIKVYFEDTGKEVEIEDESKEEALEAAKRLAEELGLKIKKVEIYP [A21D],3.72
9,KKKYVIKVYFEDTGKEVEIENESKEEALEAAKRLAEELGLKIKKVEIYP [A21N],3.84
10,KKKYVIKVYFEDTGKEVEIEAESKEEALEAAKRLAEELGLKIKKVEIYM [P49M],4.69
11,KKKYVIKVYFEDTGKEVEIEAESKEEALEAAKRLAEELGLKIKKVEIYS [P49S],4.62
12,KKKYVIKVYFEDTGKEVEIEAESKEEALEAAKRLAEELGLKIKKVEISP [Y48S],4.2
13,KKKYVIKVYFMDTGKEVEIEAESKEEALEAAKRLAEELGLKIKKVEIYP [E11M],4.8
14,KKKYVIKVYFADTGKEVEIEAESKEEALEAAKRLAEELGLKIKKVEIYP [E11A],4.58
15,KKKYVIKVYFEDTGKDVEIEAESKEEALEAAKRLAEELGLKIKKVEIYP [E16D],4.62
16,KKKYVIKVYFEDTGKMVEIEAESKEEALEAAKRLAEELGLKIKKVEIYP [E16M],4.28
17,KKKYVIKVYFEDTGKEVAIEAESKEEALEAAKRLAEELGLKIKKVEIYP [E18A],4.14
18,KKKYVIKVYFEDTGKEVFIEAESKEEALEAAKRLAEELGLKIKKVEIYP [E18F],4.21
19,KKKYVIKVYFEDTGKEVMIEAESKEEALEAAKRLAEELGLKIKKVEIYP [E18M],4.35
20,KKKYVIKVYFEDTGKEVEIEAESKEEALEAAKYLAEELGLKIKKVEIYP [R33Y],4.63
21,KKKYVIKVYFEDTGKEVEIEAESKEEALEAAKTLAEELGLKIKKVEIYP [R33T],4.18
22,KKKYVIKVYFEPTGKEVEIEAESKEEALEAAKRLAEELGLKIKKVEIYP [D12P],4.35
23,KKKYVIKVYFEQTGKEVEIEAESKEEALEAAKRLAEELGLKIKKVEIYP [D12Q],4.38
24,KKKYVIKVYFELTGKEVEIEAESKEEALEAAKRLAEELGLKIKKVEIYP [D12L],4.59
25,KKKYVIKVYFEVTGKEVEIEAESKEEALEAAKRLAEELGLKIKKVEIYP [D12V],4.34
26,KKKYVIKVYFEDTGKEVEIEAESKEEALEAAKRLAEEGGLKIKKVEIYP [L38G],3.85

row,Variant,folding stability dG [kcal/mol]
1,KKKYVIKVYFEDTGKEVEIEAESKEEALEAAKRLAEEYGLKIKKVEIYP [L38Y],4.53
2,KKKYVIKVYFEDTGKEVEIEAESKEEALEAAKRLAEEKGLKIKKVEIYP [L38K],4.2
3,KKKYVIKVYFEDTGKEVEIEAESKEEALEAAKRLAEENGLKIKKVEIYP [L38N],4.15
4,KKKYVIKVYNEDTGKEVEIEAESKEEALEAAKRLAEELGLKIKKVEIYP [F10N],2.58
5,KKKYVIKVYEEDTGKEVEIEAESKEEALEAAKRLAEELGLKIKKVEIYP [F10E],2.52
6,KKKYVIKVYFEDTGKEVEIEAESKEEASEAAKRLAEELGLKIKKVEIYP [L28S],4.2
7,KKKYVIKVYFEDTGKEVEIEAESKEEADEAAKRLAEELGLKIKKVEIYP [L28D],4.11
8,KKKYVIKVYFEDTGKEVEIEAESKEEALEAAVRLAEELGLKIKKVEIYP [K32V],4.35
9,KKKYVIKVYFEDTGKEVEIEAESKEEALEAAERLAEELGLKIKKVEIYP [K32E],4.28
10,KKKYVIKVYFEDTGKEVEIEAESKEEALEAARRLAEELGLKIKKVEIYP [K32R],4.26
11,KKKYVIKVYFEDTGKEVEIEAESKEEALEAANRLAEELGLKIKKVEIYP [K32N],4.51
12,KKKYVIKVYFEDTGKEVEIEAESKEEALEAAKRLAEELGLKIKKVEQYP [I47Q],4.25
13,KKKYVIKVYFEDTGKEVEIEAESKEEALEAAKRLAEELGLKIKKVERYP [I47R],3.79
14,KKKYVIKVYFEDTGKEVEIEAESKEEALEAAKRLAEELGLKIKKVEPYP [I47P],4.04
15,KKKYVIKVYFEDTGKEVEIEAESKEEALEVAKRLAEELGLKIKKVEIYP [A30V],4.44
16,KKKYVIKVYFEDTGKEVEIEAESKEEALEFAKRLAEELGLKIKKVEIYP [A30F],4.66
17,KKKYVIKVYFEDTGKEVEIEAESKEEALERAKRLAEELGLKIKKVEIYP [A30R],4.58
18,KKKYVIKVYFEDTGKEVEIEANSKEEALEAAKRLAEELGLKIKKVEIYP [E22N],4.38
19,KKKYVIKVYFEDTGKEVEIEAASKEEALEAAKRLAEELGLKIKKVEIYP [E22A],4.36
20,KDKYVIKVYFEDTGKEVEIEAESKEEALEAAKRLAEELGLKIKKVEIYP [K2D],3.85
21,KCKYVIKVYFEDTGKEVEIEAESKEEALEAAKRLAEELGLKIKKVEIYP [K2C],4.46
22,KRKYVIKVYFEDTGKEVEIEAESKEEALEAAKRLAEELGLKIKKVEIYP [K2R],4.48
23,KPKYVIKVYFEDTGKEVEIEAESKEEALEAAKRLAEELGLKIKKVEIYP [K2P],3.73
24,KKKTVIKVYFEDTGKEVEIEAESKEEALEAAKRLAEELGLKIKKVEIYP [Y4T],3.74

# Variants of: B2
# Experiment: as above
# Conditions: PBS, room temperature
row,Variant,folding stability dG [kcal/mol]
1,DLVTIKVPLENLEEIKKAAEKAGFKIVSISYDKENKEVTIVIEKKV [K46V],3.93
2,DLVTIKVPLENLEEIKKAAEKAGFKIVSISYDKENKEVTIVIEKKY [K46Y],4.33
3,DLVTIKVPLENLEEIKKAAEKAGFKIVSISYDKENKEVTIVIEKKW [K46W],4.4
4,DLVTIKVPLENLEEIKKAAEKAGFKIVSISYDKENKEVTIVIEKKT [K46T],3.82
